# Assay results published in article PMC11018839, “ANKFY1 bridges ATG2A-mediated lipid transfer from endosomes to phagophores” (Cell Discovery, 2024).
# B1: purified Flag-ANKFY1 full-length protein (natural protein, human, UniProt Q9P2R3 1-1169, looked up)
# chain: MAEEEVAKLEKHLMLLRQEYVKLQKKLAETEKRCALLAAQANKESSSESFISRLLAIVADLYEQEQYSDLKIKVGDRHISAHKFVLAARSDSWSLANLSSTKELDLSDANPEVTMTMLRWIYTDELEFREDDVFLTELMKLANRFQLQLLRERCEKGVMSLVNVRNCIRFYQTAEELNASTLMNYCAEIIASHWDDLRKEDFSSMSAQLLYKMIKSKTEYPLHKAIKVEREDVVFLYLIEMDSQLPGKLNEADHNGDLALDLALSRRLESIATTLVSHKADVDMVDKSGWSLLHKGIQRGDLFAATFLIKNGAFVNAATLGAQETPLHLVALYSSKKHSADVMSEMAQIAEALLQAGANPNMQDSKGRTPLHVSIMAGNEYVFSQLLQCKQLDLELKDHEGSTALWLAVQHITVSSDQSVNPFEDVPVVNGTSFDENSFAARLIQRGSHTDAPDTATGNCLLQRAAGAGNEAAALFLATNGAHVNHRNKWGETPLHTACRHGLANLTAELLQQGANPNLQTEEALPLPKEAASLTSLADSVHLQTPLHMAIAYNHPDVVSVILEQKANALHATNNLQIIPDFSLKDSRDQTVLGLALWTGMHTIAAQLLGSGAAINDTMSDGQTLLHMAIQRQDSKSALFLLEHQADINVRTQDGETALQLAIRNQLPLVVDAICTRGADMSVPDEKGNPPLWLALANNLEDIASTLVRHGCDATCWGPGPGGCLQTLLHRAIDENNEPTACFLIRSGCDVNSPRQPGANGEGEEEARDGQTPLHLAASWGLEETVQCLLEFGANVNAQDAEGRTPIHVAISSQHGVIIQLLVSHPDIHLNVRDRQGLTPFACAMTFKNNKSAEAILKRESGAAEQVDNKGRNFLHVAVQNSDIESVLFLISVHANVNSRVQDASKLTPLHLAVQAGSEIIVRNLLLAGAKVNELTKHRQTALHLAAQQDLPTICSVLLENGVDFAAVDENGNNALHLAVMHGRLNNIRVLLTECTVDAEAFNLRGQSPLHILGQYGKENAAAIFDLFLECMPGYPLDKPDADGSTVLLLAYMKGNANLCRAIVRSGARLGVNNNQGVNIFNYQVATKQLLFRLLDMLSKEPPWCDGSYCYECTARFGVTTRKHHCRHCGRLLCHKCSTKEIPIIKFDLNKPVRVCNICFDVLTLGGVS
# notes: ANKFY1, human, full length (ANKFY1-FL), N-terminal Flag tag, pCDNA4-TO vector; also called ANKFY1-FL; ANKFY1-Flag; source: 293S cells, purified (anti-Flag M2 resin, eluted with 3x Flag peptide); not shown: Flag, N-terminal, kept
# Target: T1, purified Flag-ATG2A-His protein (human, UniProt Q2TAZ0 1-1938)
# T1 construct: ATG2A, human; Flag-ATG2A-His with a C-terminal His tag; not shown: His tag, C-terminal, kept
# Assay: liposome co-flotation; 100 nm liposomes with 5% PI3P (2% Rhod-PE, 30% POPE, 63% DOPC), 1 mM lipids, incubated with 4.28 uM ANKFY1, 0.5 uM ATG2A or both at 37 °C for 1 h; 50 mM HEPES pH 8.0, 300 mM NaCl, 1 mM TCEP; floated on a histodenz gradient; topmost fraction analysed by SDS-PAGE and western blot
# Details: both partners purified
# T1 sequence (Q2TAZ0 whole entry): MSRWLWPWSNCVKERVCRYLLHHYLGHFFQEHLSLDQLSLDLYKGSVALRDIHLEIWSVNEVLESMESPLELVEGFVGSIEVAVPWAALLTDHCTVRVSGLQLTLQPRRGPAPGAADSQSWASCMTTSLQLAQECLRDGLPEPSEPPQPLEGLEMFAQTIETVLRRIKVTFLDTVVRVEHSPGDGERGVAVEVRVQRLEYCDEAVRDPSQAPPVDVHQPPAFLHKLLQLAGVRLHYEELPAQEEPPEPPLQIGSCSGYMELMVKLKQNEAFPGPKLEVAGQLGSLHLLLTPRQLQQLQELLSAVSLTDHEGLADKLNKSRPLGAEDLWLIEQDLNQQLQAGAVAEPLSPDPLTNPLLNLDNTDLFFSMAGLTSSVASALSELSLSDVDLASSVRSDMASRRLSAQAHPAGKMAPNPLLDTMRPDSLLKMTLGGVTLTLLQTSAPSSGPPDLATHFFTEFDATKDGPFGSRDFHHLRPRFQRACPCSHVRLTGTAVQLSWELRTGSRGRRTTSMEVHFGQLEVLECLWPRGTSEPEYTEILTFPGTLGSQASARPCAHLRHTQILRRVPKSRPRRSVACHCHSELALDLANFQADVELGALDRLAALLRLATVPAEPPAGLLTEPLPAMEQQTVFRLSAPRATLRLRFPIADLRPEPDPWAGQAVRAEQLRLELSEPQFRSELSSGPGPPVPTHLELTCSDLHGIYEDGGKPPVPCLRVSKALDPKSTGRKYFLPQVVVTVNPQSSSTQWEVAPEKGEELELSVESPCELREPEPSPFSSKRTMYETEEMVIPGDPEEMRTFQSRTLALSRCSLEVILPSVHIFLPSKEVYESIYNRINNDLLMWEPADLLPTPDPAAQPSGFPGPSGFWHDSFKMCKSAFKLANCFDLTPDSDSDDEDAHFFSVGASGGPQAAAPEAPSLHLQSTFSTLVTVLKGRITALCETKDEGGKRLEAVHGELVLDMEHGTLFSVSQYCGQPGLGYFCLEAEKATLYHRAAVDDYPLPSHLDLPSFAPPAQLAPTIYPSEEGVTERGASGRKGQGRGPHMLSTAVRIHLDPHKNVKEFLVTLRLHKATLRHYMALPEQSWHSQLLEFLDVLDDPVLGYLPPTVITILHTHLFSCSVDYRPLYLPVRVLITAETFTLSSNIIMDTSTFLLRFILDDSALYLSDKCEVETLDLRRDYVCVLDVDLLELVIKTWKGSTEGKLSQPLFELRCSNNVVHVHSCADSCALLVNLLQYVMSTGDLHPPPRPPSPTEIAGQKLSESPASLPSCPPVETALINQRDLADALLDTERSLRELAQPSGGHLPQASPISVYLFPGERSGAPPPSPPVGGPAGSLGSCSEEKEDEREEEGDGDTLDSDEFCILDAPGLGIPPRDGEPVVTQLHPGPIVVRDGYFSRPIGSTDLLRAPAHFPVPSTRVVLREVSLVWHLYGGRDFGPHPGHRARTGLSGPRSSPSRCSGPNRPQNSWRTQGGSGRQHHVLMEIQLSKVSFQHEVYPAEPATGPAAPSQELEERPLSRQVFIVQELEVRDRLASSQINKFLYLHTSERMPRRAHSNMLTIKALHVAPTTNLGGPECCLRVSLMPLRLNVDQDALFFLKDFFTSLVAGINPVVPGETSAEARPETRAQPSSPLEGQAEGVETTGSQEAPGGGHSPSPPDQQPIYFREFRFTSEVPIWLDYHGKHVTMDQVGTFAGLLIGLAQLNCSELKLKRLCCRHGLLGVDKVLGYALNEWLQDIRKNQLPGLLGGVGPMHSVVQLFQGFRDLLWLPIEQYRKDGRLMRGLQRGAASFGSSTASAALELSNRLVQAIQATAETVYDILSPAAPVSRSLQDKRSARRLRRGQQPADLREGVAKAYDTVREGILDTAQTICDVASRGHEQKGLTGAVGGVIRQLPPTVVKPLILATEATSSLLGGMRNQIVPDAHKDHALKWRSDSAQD
binder,measurement,value
B1,binding result,binds
